The numbers were not newly measured in patent US20020001615A1, “Combined interferon alfa and lipsosmal-encapsulated all-trans retinoic acid, including preparation and use” (Aronex Pharmaceuticals, Inc., priority 2000, published 2002), which cites them from elsewhere.

Like-named read-outs stand apart in the source and are kept apart here.

The conditions of series [1]: after three months on therapy, concomitant IFN.

`CC1=C(/C=C/C(C)=C/C=C/C(C)=C/C(=O)O)C(C)(C)CCC1` [ATRA, all-trans retinoic acid]: the “peak levels of atra in the serum” value in series [1] is on record as “declined”.

Interferon alfa-2b: the “stable for (time)” value is on record as “up to 14 days” (at 30° C.) and “up to 7 days” (at 35° C.).
